The record followed here is US20200188539A1.

This experiment has as its target prostate specific membrane antigen (human (human prostate LNCaP cells)) (UniProt Q04609). Put plainly: cell-based or functional assay.

Chain of prostate specific membrane antigen (human (human prostate LNCaP cells)) (Q04609 whole entry): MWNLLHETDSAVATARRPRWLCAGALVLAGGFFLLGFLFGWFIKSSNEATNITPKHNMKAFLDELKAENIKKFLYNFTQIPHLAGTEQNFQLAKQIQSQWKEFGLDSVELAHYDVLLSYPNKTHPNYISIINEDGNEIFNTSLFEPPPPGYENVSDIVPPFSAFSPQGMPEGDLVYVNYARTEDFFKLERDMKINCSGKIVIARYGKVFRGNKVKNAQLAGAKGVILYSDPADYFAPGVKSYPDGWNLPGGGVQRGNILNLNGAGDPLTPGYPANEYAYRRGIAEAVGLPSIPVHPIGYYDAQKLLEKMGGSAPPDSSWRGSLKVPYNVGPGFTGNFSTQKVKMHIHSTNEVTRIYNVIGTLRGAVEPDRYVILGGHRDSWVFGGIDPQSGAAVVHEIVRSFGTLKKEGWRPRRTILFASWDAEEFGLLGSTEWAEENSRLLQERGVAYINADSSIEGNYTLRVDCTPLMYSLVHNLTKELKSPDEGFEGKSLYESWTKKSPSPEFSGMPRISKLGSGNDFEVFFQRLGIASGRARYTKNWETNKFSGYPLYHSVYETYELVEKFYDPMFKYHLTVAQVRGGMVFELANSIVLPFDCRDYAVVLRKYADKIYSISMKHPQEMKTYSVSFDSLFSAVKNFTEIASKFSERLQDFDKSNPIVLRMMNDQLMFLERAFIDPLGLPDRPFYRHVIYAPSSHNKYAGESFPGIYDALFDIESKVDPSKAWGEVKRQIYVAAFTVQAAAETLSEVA

“[DUPA-6-Ahx-Lys(DOTA)-6-Ahx-RM2] (peptide)” displayed an IC50 (NAALADase assay in human prostate LNCaP cells, [N-acetyl aspartyl 3H-glutamate]) of 9.3 nM and an IC50 LNCaP cells (NAALADase assay, [N-acetyl aspartyl 3H-glutamate] substrate, LNCaP homogenized cell membranes) of 10.5 nM.
